Consider two molecules from US20260097105A1, “SYSTEMS, FORMULATIONS AND METHODS FOR GENERATING UNIVERSAL PEPTIDE/MHC COMPLEXES WITH ENGINEERED DISULFIDE CONNECTING THE HEAVY AND LIGHT CHAINS” (priority 2022, published 2026).

For assay [1], the target named is open HLA-A*24:02 (G120C)/β2m (H31C)/… (human). Nature of the assay: fluorescence polarization, peptide exchange, 200 nM pMHC.
Assay [2] concerns the target WT HLA-A*29:02/β2m/[…] (human). The assay can be described thus: competition. The following applies: chains peptide; modification not given.

B1: … (peptide)
peptide: KYNPIRTTF
modifications: not checked
As for B1, the fold of peptide exchange kinetics (Kassoc.) against WT HLA-A*24:02 in assay [1] amounted to 6 fold.

B2: … (peptide)
chain: ALIDVFHQY
Molecule B2 displayed an IC50 in assay [2] of 49 nM.
